Assay results reported in PMC4004541, “PEG-Like Nanoprobes: Multimodal, Pharmacokinetically and Optically Tunable Nanomaterials” (PLoS ONE, 2014).

Legend:
[1] = Quantum yield of fluorochrome-bearing peptides and PN's; format: physicochemical; settings: means±1 S.D.
Source text: (The p values showing significances are in Figure S2 in File S1). […] PEG attachment increased quantum yields in all cases, but as discussed below the magnitude of PEG generated improvement varied with the fluorochrome chosen. A mechanism for the PEG improvement of quantum yield is fluorochrome shielding, or the blocking of fluorochrome-fluorochrome interactions that result in quenching.
However, the magnitude of these benefits varied with the fluorochrome selected. […] Previous studies indicated PEGylated, fluorochrome-bearing peptides have absorption spectra in PBS similar to their unstacked absorption spectra in methanol. […] It appears that longer wavelength fluorochromes have stronger fluorochrome/fluorochrome stacking interactions, which result in more quenching, which is blocked by PEG and which gives rise to larger increases in quantum yield.

[2] = Probe size (volume) by FPLC calibrated with globular protein standards; format: physicochemical; settings: for Volume FPLC, globular protein equivalent molecular volume: Superdex 200 10/300GL, 0.05 M sodium phosphate, 0.1 M NaCl (0.1% Tween, pH 7.2), 0.8 ml/min, calibrated with globular protein standards; for Volume FPLC Dia. (diameter): globular protein equivalent volume from FPLC converted to spherical diameter by formula (ref 15)
Source text: FPLC chromatograms are shown for PN’s bearing the IR-783 fluorochrome with PEG’s ranging from 2 to 40 kDa ( Figure 2A ). FPLC was calibrated with globular protein standards, and globular protein equivalent molecular volumes (in kDa) were obtained ( Table 1 , column 5). Next, these globular protein equivalent molecular volumes were converted to PN diameters in nm using the relationship: [drawing 1] where M is the molecular weight of a globular protein expressed in daltons. PN diameters ranged from 3.0 to 11.7 nm, which means PN’s can be smaller or larger than albumin (MW = 67 kDa; diameter = 5.4 nm, by the formula above). Thus Table 1 column 5 gives the PN volumes obtained from FPLC expressed in two ways: (i) as the molecular weight in kDa of globular proteins with equivalent volumes, permitting size comparison of PN’s to proteins, and, (ii) as spherical diameters (“Dia.”) in nm, permitting size comparisons of a PN to relative to other nanomaterials. We confirmed the sizes obtained with FPLC by measuring the size of PN(783)11.7 by dynamic light scattering (11.7 nm).
The mass spec of low molecular weight (MW) materials were obtained by MS-ESI Micromass (Waters) and high MW molecules were determined through MALDI-TOF analyses at the Tufts University Core Facility. RP-HPLC (Varian ProStar detector and delivery modules) employed an eluant A (0.1% TFA/water) and eluant B (0.1% TFA and 9.9% water in acetonitrile). Probe size (volume) was determined by FPLC using an ÄKTA Purifier 10 and SuperdexTM 200 10/300GL column (GE Healthcare) with a running buffer of 0.05 M sodium phosphate, 0.1 M NaCl (0.1% Tween, pH 7.2) and flow rate of 0.8 ml/min. Standards (GE Healthcare) were Ferritin, Ribonuclease A, Carbonic Anhydrase, and Conalbumin and Blue Dextran 2000. To obtain probe volumes, Mr (apparent molecular weight based on size exclusion retention) was plotted versus Kav. [drawing 7] , Vt = total volume, Ve = elution volume, Vo = void volume.
PN and peptide characterization: The mass spec of low molecular weights (MW) were obtained by MS-ESI Micromass (Waters) and high MW molecules were determined through MALDI-TOF analyses at the Tufts University Core Facility. RP-HPLC (Varian ProStar detector and delivery modules) employed an eluant A (0.1% TFA /water) and eluant B (0.1% TFA and 9.9% water in acetonitrile). […] Standards (GE Healthcare) were Ferritin, Ribonuclease A, Carbonic Anhydrase, and Conalbumin and Blue Dextran 2000. To obtain probe volumes, Mr (apparent molecular weight based on size exclusion retention) was plotted versus Kav. [picture] , Vt = total volume, Ve = elution volume, Vo = void volume.

[3] = tested on: HT-29 cells; assay: Non-specific binding (NSB) to HT-29 cells by FACS; format: cell-based, human; settings: 100 μL of nanoprobes (2 μM) added to 100 μl 2% FBS/DPBS, 30 min at 37 °C, means±1 S.D.
Source text: We next examined the non-specific binding (NSB) of PN’s to HT-29 cells based on the assumption that NSB minimization will correlate with a desirable minimization of post-IV injection retention. As noted above, after diagnostic drugs generate their added information, retention can only increase the risks of delayed toxicity. The attachment of PEG decreased the non-specific binding (NSB) to HT-29 cells, scored as the percent of cells above the cutoff for unstained cells seen with FACS ( Table 1 , column 7).
PN and peptide binding to cells (effect of PEGylation on NSB): HT-29, a human colon carcinoma cell line, was from the American Tissue Culture Collection and maintained according to their instructions. Cells were seeded on 24-well plates at 5X10^5 cells/well in culture medium (RPMI 1640 with 10% FBS) the day before the assay. The day of assay, medium was removed, wells rinsed twice with DPBS (+Ca, +Mg), and 100 μl of 2% FBS / DPBS (+Ca, +Mg) added. 100 μL of Nanoprobes (2 μM) in DPBS (+Ca, +Mg) was added to cells and incubated for 30min at 37 °C. (Probe concentrations were determined spectrophotometrically (783 nm, extinction coefficient of 314 471 cm^-1 M^-1 for IR-783; 497 nm, extinction coefficient of 68 000 cm^-1 M^-1 for Fluorescein; 545 nm, extinction coefficient of 150 000 cm^-1 M^-1 for Cy3). Cells were detached by Trypsin/EDTA and assayed for fluorescence by FACS (BD 7 laser LSR2 for nanoprobes with IR-783; BD 3 laser LSR2 for nanoprobes with Fluorescein or Cy3).
Figure S4: Effect of PEGylation on non-specific binding to cells by single channel FACS. […] Arrows indicates the cutoff for unstained cells.

[4] = Circulating form of PN's: FPLC of sera of injected mice; format: in vivo; settings: 20 nmoles IV tail vein, nude mice, FPLC at 783 nm
Protocol: To see if the variable PN size could be translated into tunable pharmacokinetics, it was essential to first establish that PN’s circulated at PEG-determined, pre-injection dimensions. Mice were injected with PN’s and FPLC chromatograms of serum samples, taken at various times post injection ( Figures 2D, 2E and 2F ), compared with pre-injection PN samples. By using PN’s absorbing at 783 nm, chromatograms from the sera of injected mice reflect this PN, since there are no compounds in serum that absorb at this wavelength. […] Similarly, peaks for PN(783)6.1 ( Figure 2E ) and PN(783)4.3 ( Figure 2F ) where identical for pre-injection samples and for nanoprobes in the sera of injected mice. Thus, molecular weight of the PEG chosen determines PN dimensions in vitro and those dimensions are maintained after injection.
At the indicated time, 50 µl of blood was collected with microhematocrit capillary tube (Fisher Scientific) from the tail, and transferred to Eppendorf microcentrifuge tube with anticoagulant (EDTA) coating (Fisher Scientific). Tubes were centrifuged (5000 rpm for 5 min), and the supernatant was injected to the FPLC, a ÄKTA Purifier 10 with SuperdexTM 200 10/300GL column.
At the indicated time, 50 μl of blood was collected with microhematocrit capillary tube (Fisher Scientific) from the tail, and transferred to Eppendorf microcentrifuge tube with anticoagulant (EDTA) coating (Fisher Scientific). Tubes were centrifuged (5000 rpm for 5 min), and the supernatant was injected to the FPLC, a ÄKTA Purifier 10 with SuperdexTM 200 10/300GL column.

| Substance | Quant. Yield [1] | Volume FPLC, globular protein equivalent molecular volume [2] [kDa] | Volume FPLC Dia. (diameter) [2] [nm] | Cell NSB: percent of HT-29 cells above the cutoff for unstained cells [3] | Circulating size: FPLC peaks of serum samples after injection versus pre-injection sample [4] |
| --- | --- | --- | --- | --- | --- |
| (DOTA)Lys(PEG 5 kDa)-Cys(IR-783) [PN(783)4.3, PEG-like Nanoprobe: 5 kDa PEG, IR-783 fluorochrome, DOTA peptide] | 0.16±0.03 | 35.2 | 4.3 | 20±1% | identical |
| (DOTA)Lys(PEG 30 kDa)-Cys(Fl) [PN(497)10.0, PEG-like Nanoprobe: 30 kDa PEG, fluorescein, DOTA peptide] | 0.60±0.08 | 435 | – | 0.1% ±0.1% | – |
| (DOTA)Lys(PEG 30 kDa)-Cys(IR-783) [PN(783)10.0, PEG-like Nanoprobe: 30 kDa PEG, IR-783 fluorochrome, DOTA peptide] | 0.16±0.04 | 435.4 | 10.0 | 18±1% | circulates at its pre-injection size |
